Data set [1] deals with the molecule itself. The experiment in a line: MALDI-TOF mass spectrometry; lyophilized protein dissolved in water, α-cyano-4-hydroxycinnamic acid as matrix.
Data set [2] deals with the molecule itself. The experiment in a line: NMR diffusion-ordered spectroscopy (DOSY); unlabeled Id2’ at 0.27 mM in H2O/D2O (94:6, v/v); calibration curve with protein standards.
Data set [3] concerns the molecule itself. Nature of the data set: dynamic light scattering; Id2’ 80 μM in pure water, 21 °C, two weeks old filtered sample; globular model for molecular weight.
Data set [4] concerns the molecule itself. The experiment in a line: dynamic light scattering; Id2’ 80 μM in pure water, 21 °C, measured immediately after filtration (0.2 μm); globular model for molecular weight.

In general, stoichiometry N refers to the number of molecules, sites or subunits per partner or assembly.

B1: recombinant full-length human Id2 protein, preparation with oligomers of the type Id2nβMEn (natural protein, UniProt Q02363 1-134, looked up)
chain: MKAFSPVRSVRKNSLSDHSLGISRSKTPVDDPMSLLYNMNDCYSKLKELVPSIPQNKKVSKMEILQHVIDYILDLQIALDSHPTIVSLHHQRPGQNQASRTPLTTLNTDISILSLQASEFPSELMSNDSKALCG
modifications: mixed disulfide with βME, as Id2nβMEn (n = 2–4)
notes: the His-tag of pET22b(+) was excluded by a double stop; Another preparation of the same construct as m1; the formula implies one βME for each monomer, so one cysteine of each monomer is free or in an intermolecular disulfide
Consider B1, for which, in data set [1], the “stoichiometry N” value was 2 to 4.

B2: recombinant full-length human Id2 protein, sample Id2’ (natural protein, UniProt Q02363 1-134, looked up)
chain: MKAFSPVRSVRKNSLSDHSLGISRSKTPVDDPMSLLYNMNDCYSKLKELVPSIPQNKKVSKMEILQHVIDYILDLQIALDSHPTIVSLHHQRPGQNQASRTPLTTLNTDISILSLQASEFPSELMSNDSKALCG
modifications: both cysteine residues (Cys-42 and Cys-133) disulfide-bonded to β-mercaptoethanol (βME); one oxidized methionine residue, Met(O)
notes: the His-tag of pET22b(+) was excluded by a double stop; The most homogeneous unlabeled preparation; also called Id2 1–134
For B2, the figures for the “stoichiometry N” value in data set [2], in data set [3] and in data set [4] were about 16 monomers, 16 monomers and 3 monomers, respectively.

The values are drawn from article PMC5979349, “The Recombinant Inhibitor of DNA Binding Id2 Forms Multimeric Structures via the Helix-Loop-Helix Domain and the Nuclear Export Signal” (International Journal of Molecular Sciences, 2018).
